Laboratory results taken from article PMC8617272.

Biological target: AdeB from Acinetobacter baumannii (RND transporter subunit of the AdeABC efflux pump) (Acinetobacter baumannii AYE)
Assay: native gel or EMSA + other: negative stain electron microscopy; AdeB reconstituted into Salipro Nanodiscs

Substance: AdeB from Acinetobacter baumannii (RND transporter subunit of the AdeABC efflux pump) (natural protein)
- stoichiometry N: 3
